Assay results published in US20190233498A1 (H LUNDBECK A S, published 2019).

T1: human PACAP38 (human, not fully specified; C-terminal lysine is amidated; N-terminal or C-terminal biotin in the HTRF and PC-12 cell binding assays)
T1 construct: synthetic peptide, bought; also called huPACAP (1-38)
T1 peptide: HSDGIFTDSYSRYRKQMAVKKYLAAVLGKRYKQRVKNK

T2: human PACAP27 (human, C-terminal leucine is amidated; 125I-labelled in Example 10)
T2 peptide: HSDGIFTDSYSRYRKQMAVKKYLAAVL

T3: human VIP (human)
T3 construct: also called Vasoactive Intestinal Peptide
T3 peptide: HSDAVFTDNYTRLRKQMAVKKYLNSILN


Tests used:
human PACAP38 [1] = molecular target: T1, human PACAP38; assay: SPR, Ab immobilised
Procedure: (§1) Binding affinities of monoclonal antibodies for human PACAP were estimated using SPR on the PROTEON™ XPR36 (Bio-Rad, Hercules, Calif.). Antibody was immobilized to the surface of general amine coupling (“GLC” or “GLM”) Chips (Bio-Rad, Hercules, Calif.). A dilution series of human PACAP38 (SEQ ID NO: 1241) prepared in 1×PBST Buffer (4.3 mM Na Phosphate, 1.4 mM K Phosphate, 135 mM NaCl, 2.7 mM KCl 0.05% Polysorbate-20) purchased from Teknova (Cat# P1192, Teknova, Hollister, Calif.) and supplemented with 0.25 M arginine (from J.T. BAKER®), 0.2 mg/ml BSA (Jackson Immuno Research Labs, West Grove, Pa.), and 0.005% sodium azide (VWR International, Radnor, Pa.) with the pH adjusted to 7 was used to query the antibodies. Antigen (ranging from 1.23 nM to 100 nM) was typically run sequentially with association times of 2-4 minutes and dissociation times of 3-120 minutes grouped with the PROTEON™ Manager Software (v3.1.0.6 (Bio-Rad, Hercules, Calif.)) and fitted using a 1:1 Langmuir binding model. Surfaces were regenerated between analyte queries using 0.85% Phosphoric Acid.

human PACAP27 [2] = molecular target: T2, human PACAP27; assay: SPR, Ab immobilised
Procedure: [The procedure below names another target; the source says it served here with some conditions changed.] as §1

human VIP = molecular target: T3, human VIP; assay: SPR, Ab immobilised
Procedure: [The procedure below names another target; the source says it served here with some conditions changed.] as §1

human PACAP38 [3] = molecular target: T1, human PACAP38; assay: cell-based or functional assay
human PACAP27 [4] = molecular target: T2, human PACAP27; assay: cell-based or functional assay
human PACAP38 [5] = molecular target: T1, human PACAP38; assay: cell-based or functional assay
human PACAP38 [6] = molecular target: T1, human PACAP38; assay: cell-based or functional assay
human PACAP38 [7] = molecular target: T1, human PACAP38; assay: HTRF binding, biotin-PACAP38
Procedure: In parallel, 10 μl of an antibody dilution series (highest final concentration of 100 nM) were incubated with 10 μl of N-terminal or C-terminal biotinylated PACAP38 (35 nM final) alone, or in combination with either PACAP27 (350 nM final) or VIP (350 nM final), i.e., 10× PACAP27 or 10×VIP, respectively, in a HTRF plate. 20 μl of Eu³⁺ cryptate labeled anti-hu Fc donor and 20 μl of d2-labeled streptavidin acceptor were added to each well and incubated for 1 hour at room temperature. Fluorescence was measured at 620 and 665 nm with a delay of 300 μsec.
EC₅₀ values, i.e. the concentration of an antibody that yields a response halfway between the baseline and the maximum value within a specified time period, were computed for each antibody based upon their binding curves and are shown in Table 1 below. […] A humanized form of antibody Ab1 was produced and is identified by an appended “.H”, i.e., Ab1.H, and it also bound PACAP38 with high affinity.

human PACAP38 [8] = molecular target: T1, human PACAP38; assay: inhibition of 100 nM biotin-PACAP38 binding to PC-12 cells, TRF
Procedure: To identify antibodies that block PACAP38 binding to PAC1-R-expressing cells, adherent PC-12 cells (ATCC, Manassas, Va.) expressing PAC1-R were used in a Europium-based PAC1-R expressing cells binding assay.
Antibody solutions were incubated with N-terminal biotinylated PACAP38 at 10× the final concentration (100 nM or 30 nM) for 1 hr, then added to PC-12 cells that were plated 24 hrs. prior in black clear bottom 96 well plates (COSTAR™, Corning Incorporated, Corning, N.Y.) and further incubated for 1 hr at room temperature. After three washes, the cells were incubated with 20 μl Europium-labeled streptavidin (PerkinElmer, Waltham, Mass.) for 1 hr at room temperature. Cells were washed three times, then 20 μl DELFIA® Enhancement solution (PerkinElmer, Waltham, Mass.) was added to each well and incubated for 15 minutes with gentle shaking. Plates were read (Time Resolved Fluorescence (“TRF”)) on SPECTRAMAX® (Molecular Devices, Sunnyvale, Calif.) plate reader.
FIGS. 14A-14BB are representative of the inhibition curves obtained by this method (results are shown for Ab1, Ab2, Ab3, Ab4, Ab5, Ab6, Ab7, Ab8, Ab9, Ab10, Ab11, Ab12, Ab13, Ab14, Ab15, Ab16, Ab17, Ab18, Ab19, Ab1.H, Ab10.H, Ab22, Ab23, Ab3.H, Ab4.H, Ab5.H, Ab9.H, and Ab12.H, respectively) wherein the PAC1-R expressing cells were PC-12 cells.

| Binder | Kd (human PACAP38 [1]) | koff (human PACAP38 [1]) | kon (human PACAP38 [1]) | Kd (human PACAP27 [2]) | koff (human PACAP27 [2]) | kon (human PACAP27 [2]) | Kd (human VIP) | koff (human VIP) | kon (human VIP) | IC50, 0.1 nM PACAP38-induced PAC1-R mediated cAMP increase (human PACAP38 [3]) | IC50, 0.1 nM PACAP27-induced PAC1-R mediated cAMP increase (human PACAP27 [4]) | IC50, 5 nM PACAP38-induced human VPAC1-R mediated cAMP increase (human PACAP38 [5]) | IC50, 1 nM PACAP38-induced human VPAC2-R mediated cAMP increase (human PACAP38 [6]) | EC50 (human PACAP38 [7]) | IC50 (human PACAP38 [8]) |
| --- | --- | --- | --- | --- | --- | --- | --- | --- | --- | --- | --- | --- | --- | --- | --- |
| anti-PACAP antibody Ab7 (antibody, human IgG1, kappa, N297A, V domains shown, full-length rabbit/human chimeric antibody) VH: QSVEESGGRLVTPGTPLTLTCTASGIDLSGYAMGWVRQAPGKGLEWIGDISTYGTTDYASWVNGRFTISRTSTTVTLKMTSLTTEDTATYFCARDYWLSLWGPGTLVTVSS VL: AAVLTQTPSPVSAAVGGTVTIKCQSSQSVYDNNALAWYQQKPGQPPKLLIYAASTLASGVPSRFKGSGSGTQFTLTINGVQCDDAATYYCLGGYDDPADNAFGGGTEVVVKR | ≤ 0.056 nM | ≤ 1e-05 s⁻¹ | 180000 M⁻¹ s⁻¹ | 0.2 nM | 4.5e-05 s⁻¹ | 230000 M⁻¹ s⁻¹ | 34 nM | 0.0088 s⁻¹ | 260000 M⁻¹ s⁻¹ | 0.111 nM | 0.0458 nM | 0.687 nM | 0.162 nM | 0.45 nM | 22 nM |
| anti-PACAP antibody Ab12 (antibody, human IgG1, kappa, N297A, V domains shown, full-length rabbit/human chimeric antibody) VH: QSVEESGGRLVTPGTPLTLTCTASGFSLSSYAMGWVRQAPGKGLEWIGDISTYGTTDYASWVYGRFTISRTSTTVTLKMTSLTTEDTATYFCARDYWLSLWGQGTLVTVSS VL: AAVLTQTPSPVSAAVGGTVTIKCQSSQSVYDNNALAWYQQKPGQPPKLLIYAASTLASGVPSRFSGSGSGTEFTLTISGVQCDDAATYYCLGGYYDPADNAFGGGTEVVVKR | ≤ 0.032 nM | ≤ 1e-05 s⁻¹ | 310000 M⁻¹ s⁻¹ | 0.07 nM | 2.1e-05 s⁻¹ | 290000 M⁻¹ s⁻¹ | 8.2 nM | 0.0024 s⁻¹ | 290000 M⁻¹ s⁻¹ | 0.0511 nM | 0.0604 nM | 0.292 nM | 0.179 nM | 0.51 nM | 22.6 nM |
| anti-PACAP antibody Ab13 (antibody, human IgG1, kappa, N297A, V domains shown, full-length rabbit/human chimeric antibody) VH: QSVEESGGRLVTPGTPLTLTCTVSGFSLSSAAMNWVRQAPGKGLEWIGIIDNTAGTYYAPWAKGRFTISKTSSTTVDLKMTSPTTEDTATYFCARGGGEFFIWGPGTLVTVSS VL: AQVLTQTPSSVSAAVGGTVTINCQSSQSVHDGSYLSWYQQKPGQPPNFLIYQASNLASGVPSRFKGSGSGTQFTLTISDLECDDAATYYCAGGYSSNICGFGGGTEVVVKR | 0.064 nM | 2.7e-05 s⁻¹ | 420000 M⁻¹ s⁻¹ | 0.12 nM | 6.6e-05 s⁻¹ | 540000 M⁻¹ s⁻¹ | 140 nM | 0.046 s⁻¹ | 320000 M⁻¹ s⁻¹ | 0.0824 nM | 0.0741 nM | 2.18 nM | 0.652 nM | 0.48 nM | 53.1 nM |
| anti-PACAP antibody Ab14 (antibody, human IgG1, kappa, N297A, V domains shown, full-length rabbit/human chimeric antibody) VH: QSVEASGGRLVTPGTPLTLTCTVSGFSLSSAAMNWVRQAPGKGLEWIGFIEYSKNIVYASWAKGRFTISKVSSTTVDLKMTSPTTEDTATYFCARGGGEFFIWGQGTLVTVSS VL: AQVLTQTPSSVSAAVGGTVTINCQSSQSVYSNNRLSYYQQKPGQPPKLLIYEASSLAYGVPSRFKGSGSGTQFTLTISDLECDDAATYYCAGAYSNSIYSFGGGTEVVVKR | ≤ 0.031 nM | ≤ 1e-05 s⁻¹ | 320000 M⁻¹ s⁻¹ | 0.074 nM | 2e-05 s⁻¹ | 270000 M⁻¹ s⁻¹ | 250 nM | 0.067 s⁻¹ | 270000 M⁻¹ s⁻¹ | 0.154 nM | 0.0957 nM | 2.63 nM | 0.84 nM | 0.57 nM | 17.9 nM |
